T1: NdhH (S. oleracea, UniProt Q9M3I5 1-393)
T1 construct: NdhH, SubA module of chloroplast NDH, S. oleracea; source: purified from spinach (S. oleracea) leaves as part of the NDH–PSI–LHCI-2 supercomplex
T1 sequence (looked up): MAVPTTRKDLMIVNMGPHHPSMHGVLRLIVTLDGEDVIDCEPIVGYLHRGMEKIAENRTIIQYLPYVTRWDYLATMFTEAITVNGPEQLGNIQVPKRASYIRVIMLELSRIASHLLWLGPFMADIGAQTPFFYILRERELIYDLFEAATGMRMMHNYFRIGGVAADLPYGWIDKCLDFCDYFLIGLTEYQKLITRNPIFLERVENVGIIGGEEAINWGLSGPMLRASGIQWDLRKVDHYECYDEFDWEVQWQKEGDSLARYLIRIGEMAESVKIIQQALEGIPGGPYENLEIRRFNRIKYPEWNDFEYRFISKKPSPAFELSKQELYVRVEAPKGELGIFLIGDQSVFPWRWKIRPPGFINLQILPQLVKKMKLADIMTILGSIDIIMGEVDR

T2: NdhK (S. oleracea, UniProt Q9M3M0 1-227)
T2 construct: NdhK, SubA module of chloroplast NDH, S. oleracea; source: purified from spinach (S. oleracea) leaves as part of the NDH–PSI–LHCI-2 supercomplex
T2 sequence (looked up): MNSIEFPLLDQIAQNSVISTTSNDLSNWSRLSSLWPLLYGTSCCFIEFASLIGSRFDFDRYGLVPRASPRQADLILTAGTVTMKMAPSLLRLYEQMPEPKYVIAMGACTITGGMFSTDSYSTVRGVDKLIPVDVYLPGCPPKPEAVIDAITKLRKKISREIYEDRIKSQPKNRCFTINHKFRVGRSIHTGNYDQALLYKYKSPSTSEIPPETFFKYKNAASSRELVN

B1: NdhA (natural protein, S. oleracea, UniProt Q9M3I6 1-365, looked up)
chain: MIIDTTTTKVQAINSFSRLEFLKEVYETIWMLFPILILVLGITIGVLVIVWLEREISASIQQRIGPEYAGPLGILQALADGTKLLFKENLLPSRGDTYLFSIGPSIAVISILLGYLIIPFGSRLVLADLSIGVFLWIAVSSIAPIGLLMSGYGSNNKYSFLGGLRAAAQSISYEIPLTLCVLSISLLSNSSSTVDIVEAQSKYGFWGWNLWRQPIGFIVFIISSLAECERLPFDLPEAEEELVAGYQTEYSGIKFGLFYVASYLNLLISSLFVTVLYLGGWNLSIPYIFISEFFEINKIDGVFGTTIGIFITLAKTFLFLFIPITTRWTLPRLRMDQLLNLGWKFLLPISLGNLLLTTSSQLFSL
notes: NdhA, SubM module of chloroplast NDH, S. oleracea; also called NhdA; source: purified from spinach (S. oleracea) leaves as part of the NDH–PSI–LHCI-2 supercomplex
B2: NdhC (natural protein, S. oleracea, UniProt Q9M3L9 1-120, looked up)
chain: MFLLYEYDIFWAFLIISSVIPILAFLFSGILAPISKGPEKLSSYESGIEPMGDAWLQFRIRYYMFALVFVVFDVETVFLYPWAMSFDILGVSVFIEALIFVLILIVGLVYAWRKGALEWS
notes: NdhC, SubM module of chloroplast NDH, S. oleracea; source: purified from spinach (S. oleracea) leaves as part of the NDH–PSI–LHCI-2 supercomplex

Common to all, as to experiment: cryo-EM structure; single-particle cryo-EM of the endogenous NDH–PSI–LHCI-2 supercomplex co-purified from spinach stromal lamellae in t-PCCαM; buffer A: 30 mM HEPES pH 7.8, 2 mM MgCl2, 2 mM KCl, 0.5 mM Na2-EDTA, 100 mM NaCl, 2 mM DTT, 0.04% t-PCCαM; 38,385 particles; 3.0–3.3 Å
Test [1] has as its target NADPH dehydrogenase (NDH) complex (S. oleracea) (UniProt Q9M3I6).
A further test addresses T1, NdhH. As to conditions: both partners purified.
The test “NdhA” addresses B1. As to conditions: both partners purified.
The target in a further test is T2, NdhK. Conditions: both partners purified.

The source of these data is paper PMC12170339, “Cryo-EM structure of the NDH–PSI–LHCI supercomplex from Spinacia oleracea” (Nature Structural & Molecular Biology, 2025).

Molecule “PSI–LHCI-2 (photosystem I–light-harvesting complex I) (from UniProt P06511 1-750; P06512 1-734; P10098 1-81; P12353 51-212; P12355 78-231; P12357 70-167; P22179 50-144; P17228 1-33; P17230 1-44; P14627 1-29; Q41385 48-216)” returned a stoichiometry N (NDH per PSI–LHCI) in test [1] of 1.

Turning to B1, the binding result in the test with NdhH was “binds”.

Consider B2, for which the binding result with NdhH, with NdhA and with NdhK was “binds” each time.
